Test results from paper PMC9437899.

Biological target: neonatal Fc receptor (FcRn) (UniProt P55899)
Assay: ELISA; pH 6.0; absorbance read with a plate reader; Kd defined as the concentration of protein that produces 50% of optimal binding response; who was immobilised is not given in the source

neonatal Fc receptor (FcRn), sequence (P55899 24-365): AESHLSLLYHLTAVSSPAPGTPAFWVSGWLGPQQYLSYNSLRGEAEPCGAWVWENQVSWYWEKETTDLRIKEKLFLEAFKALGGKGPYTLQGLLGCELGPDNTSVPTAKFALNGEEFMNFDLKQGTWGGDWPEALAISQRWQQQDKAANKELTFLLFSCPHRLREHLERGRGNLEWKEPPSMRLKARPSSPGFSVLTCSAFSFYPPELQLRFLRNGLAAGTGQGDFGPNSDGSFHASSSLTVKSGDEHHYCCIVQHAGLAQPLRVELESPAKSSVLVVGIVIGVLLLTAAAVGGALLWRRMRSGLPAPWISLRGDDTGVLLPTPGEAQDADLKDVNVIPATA

Fc-PepH3 conjugate (Fc fusion)
Kd: 95.4 nM
